Residue numbers refer to the chain shown, from its start. Names and notes keep the numbering of the source.

Here are results for 2 proteins from article PMC6702468.

Substrate in this data set: O[Si](O)(O)O
Description: cells, lysate or membranes. The settings on record: unit not printed beside Km, taken from [Si]ext in mM.

B1: NsLsi1 (NsNIP2-1) (Nicotiana sylvestris) (protein)
chain: MESERGNSTENKKPNELVSVENPKSNLSFRYILIFFQEHYPPGFLKKVIAEVIATYLLVFVTCGAAAISASDEHKVSRLGASVAGGLIVTVMIYAVGHISGAHMNPAVTFAFAAVRHFPWRQVPPYAAAQLTGATSAAFTLRVLLHPIKHVGTTTPSGSDIQALIMEIVVTFSMMFITSAVATDTKAIGELAGMAVGSAVCITSILAGPVSGGSMNPARTIGPAMASNDYRGIWVYIIGPVCGTLLGAWSYNFIRVTDKPVHAIAPGQSFSFKLRRMKSNDEEQGV
A word on the Km: it is the substrate concentration at which the rate is half of its maximum. B1: for the setting “3 hr exposure in modified Barth's solution pH 7.4, room temperature, H2O-injected background subtracted, transport, R2 = 0.90, pH 7.4”, the Km stood at 0.94 ± 0.30 mM.

B2: NsLsi1 (NsNIP2-1) (Nicotiana sylvestris; P125F) (protein)
chain: B1 chain with P125F
Take B2: the Michaelis constant (Km) (otherwise as WT, paper states a linear equation fits best (R2 = 0.99) and Km lies far above the tested range (up to 2 mM)) is listed as 12.83 ± 8.49 mM.
